According to publication PMC4402148:

Target: DDX3X D1 WT (Homo sapiens, UniProt O00571 135-407)
Experiment: NMR CSP

Chain of DDX3X D1 WT (O00571 135-407): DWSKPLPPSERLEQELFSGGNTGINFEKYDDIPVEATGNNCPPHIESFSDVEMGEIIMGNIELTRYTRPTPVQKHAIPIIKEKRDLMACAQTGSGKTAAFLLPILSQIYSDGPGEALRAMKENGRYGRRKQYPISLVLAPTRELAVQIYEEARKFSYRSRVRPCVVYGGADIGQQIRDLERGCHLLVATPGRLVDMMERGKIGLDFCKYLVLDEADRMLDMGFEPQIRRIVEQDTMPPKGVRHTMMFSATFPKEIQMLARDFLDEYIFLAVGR

B1: blunt 14-mer dsRNA (NMR) (dsRNA)
RNA 1: GGGCGGGCCCGCCC
RNA 2: GGGCGGGCCCGCCC
binding result: binds
